Tests used:
[1] = target: T1, SsoSSB (S. solfataricus SSB, SSO2364) (Sulfolobus solfataricus, UniProt Q97W73 SEQ:1-148); assay: competition; details: linear pUC19 at 100-fold molar (nucleotide) excess did not alter shift of 63-mer; 75 C
T1 sequence: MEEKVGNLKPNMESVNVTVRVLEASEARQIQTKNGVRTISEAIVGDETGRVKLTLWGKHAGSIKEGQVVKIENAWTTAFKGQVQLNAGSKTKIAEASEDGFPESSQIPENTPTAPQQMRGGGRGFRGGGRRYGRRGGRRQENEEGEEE

[2] = target: T1, SsoSSB (S. solfataricus SSB, SSO2364); assay: EMSA; 10 uM nucleotides, constant mobility reached at 2 uM protein; saturation about 1 SSB per 5 nt; non-cooperative; 75 C, 30 mM Tris OAc pH 7.5, 10 mM MgOAc2, 5 mM; details: tags: untagged, expressed from pET21a in E. coli, heat treated at 80 C; chain copies: 4 (tetramer main form in solution; dimer and monomer also present); label: 5'-32P (T4 polynucleotide kinase end label)
Protocol: To determine the occluded binding site size of the protein and to evaluate the activity of the SsoSSB protein, we performed acrylamide gel mobility-shift assays with a radioactively labeled single-stranded oligonucleotide that was 63 nucleotides in length (FIG. 5). When a fixed quantity of radiolabeled oligonucleotide was incubated with increasing quantities of protein, a band of reduced mobility was observed. The apparent mobility further decreased upon addition of more protein, finally achieving a constant mobility after the addition of 2 μM protein. The absence of discrete species implied rapid equilibration between bound and free forms of the complexes, and consistent with this possibility, more discrete species were visualized when electrophoresis was performed more rapidly (at high voltage). […] The M. jannaschii RPA protein has a site size of 15 to 20 nucleotides (Kelly, T. J. et al., Proc Natl Acad Sci USA 95:14634-14639 (1998)) whereas the site size of E. coli SSB protein, depending on solution conditions, varies from 8 to 16 nucleotides per monomer. The apparent site size of SsoSSB protein is similar to the 7 nucleotide site size observed for phage T4 SSB protein, gp32. […] The observed band-retardation pattern is likely the result of a combination of this non-cooperative binding and rapid equilibration of protein-DNA complexes during electrophoresis.

linearized pUC19
fold lower affinity than ssDNA (competition) (fold lower affinity than ssDNA) [1]: > 100

B1: 63-mer oligonucleotide (ssDNA)
DNA: ACAGCACCAATGAAATCTATTAAGCTCCTCATCGTCCGCAAAAATATCGTCACCTCAAAAGGA
binding result [2]: binds
